One series addresses GFP (UniProt P42212 P42212:1-238). In words: pulldown; serial microcolumns, qPCR; 10 mM HEPES-KOH pH 7.6, 125 mM NaCl, 25 mM KCl, 5 mM MgCl2, 0.02% Tween-20; GFP 0.6 ug/uL resin. The conditions noted are these: tags: N-terminal hexahistidine; immobilised on Ni-NTA Superflow resin. As for the experimental part:
(§1) The order of targets was as follows: Empty, GSH, Ni-NTA, Amylose, His-GFP, GST-hHSF1, His-NELF-E, His-UBLCP1, and is illustrated in FIG. 41 in section I.
(§2) The RNA pools were injected at a rate of 33 μL/min for 30 min with a 10 μL aliquot of each pool set aside and used as a standard for quantitative polymerase chain reaction (qPCR) analysis. All buffers and solutions were degassed prior to use and introduced into the microcolumns via programmable multichannel syringe pumps (Harvard Apparatus) with MEDUSA placed onto a 96-well format liquid waste reservoir. The microcolumns were reconfigured to run in parallel by removing the caps and silicone layers permitting the connectivity of microcolumns, and reassembling the device with the appropriate caps for a parallel configuration, and washed with 3 mL of binding buffer at a rate of 300 μL/min. The RNA/RNA-protein complexes were eluted directly into a 96-well microplate from the individual microcolumns by flowing elution buffer [binding buffer+50 mM ethylenediaminetetraacetic acid (EDTA pH 8.0) for selections with Ni-NTA resin; binding buffer+10 mM glutathione for selections with GSH resin; binding buffer+10 mM maltose for selections with amylose-resin] at a rate of 50 μL/min for 12 min. […]

The target in a further series is T1, NELF-E (Drosophila, UniProt P92204 P92204:1-280).
T1 sequence: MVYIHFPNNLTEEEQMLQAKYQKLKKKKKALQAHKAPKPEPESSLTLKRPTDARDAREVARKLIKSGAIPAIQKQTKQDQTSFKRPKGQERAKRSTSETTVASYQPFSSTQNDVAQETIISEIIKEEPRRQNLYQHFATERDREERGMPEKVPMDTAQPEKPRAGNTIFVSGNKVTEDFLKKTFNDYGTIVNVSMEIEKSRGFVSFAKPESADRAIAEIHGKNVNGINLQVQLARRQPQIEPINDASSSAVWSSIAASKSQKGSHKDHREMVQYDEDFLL
In words: pulldown; serial microcolumns, qPCR; enrichment falls above 0.6 ug/uL NELF-E, de-enriched at 10 ug/uL. The conditions noted are these: tags: N-terminal hexahistidine; immobilised on Ni-NTA Superflow resin. (In general: In qPCR the cycle at which signal appears reflects the starting amount.)

In series [1] the target is hHSF1 (heat shock factor 1) (UniProt Q00613 Q00613:1-529). The series can be described thus: pulldown; serial microcolumns, qPCR; same buffer, 5 mM MgCl2. The following applies: tags: N-terminal GST; immobilised on glutathione-agarose. As for the experimental part: as §1, §2
Chain of hHSF1 (heat shock factor 1) (Q00613 whole entry, one chain of several): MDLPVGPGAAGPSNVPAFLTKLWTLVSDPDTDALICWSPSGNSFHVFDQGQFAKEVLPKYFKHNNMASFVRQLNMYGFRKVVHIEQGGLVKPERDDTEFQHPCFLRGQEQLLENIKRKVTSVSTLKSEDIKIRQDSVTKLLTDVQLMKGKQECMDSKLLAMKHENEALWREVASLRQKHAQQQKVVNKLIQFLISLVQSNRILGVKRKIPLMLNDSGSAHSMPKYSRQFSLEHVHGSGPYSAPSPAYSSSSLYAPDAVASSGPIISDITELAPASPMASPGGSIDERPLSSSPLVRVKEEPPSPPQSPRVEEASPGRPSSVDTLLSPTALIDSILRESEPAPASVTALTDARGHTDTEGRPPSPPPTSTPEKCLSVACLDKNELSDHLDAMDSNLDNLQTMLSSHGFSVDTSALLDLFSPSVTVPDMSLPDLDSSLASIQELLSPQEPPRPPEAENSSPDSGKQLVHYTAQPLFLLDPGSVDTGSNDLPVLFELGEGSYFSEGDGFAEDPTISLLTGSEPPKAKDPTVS

B1: GFPapt (AP3-1) (ssRNA)
RNA: AGCUUCUGGACUGCGAUGGGAGCACGAAACGUCGUGGCGCAAUUGGGUGGGGAAAGUCCUUAAAAGAGGGCCACCACAGAAGCU
Take B1: in the series with GFP, the binding signal was 750 fold enrichment over N70 library.

B2: NELFapt (Napt1) (ssRNA)
RNA: GGGAAUGGAUCCACAUCUACGAAUUCCCAACGACUGCCGAGCGAGAUUACGCUUGAGCGCCCCACUGAGGAUGCCCACGGGCGAUUGGGGCACGGCUUCACUGCAGACUUGACGAAGCUU
For the molecule B2, the binding signal with NELF-E is 262 fold enrichment over N70 library.

B3: HSFapt (hHSF2-R5-2) (ssRNA)
RNA: GGGAAUGGAUCCACAUCUACGAAUUCAAUCAAGUCCCCAGACUCAGCAACACUGGACAGCGAUAUGCAGAUAACCAAGACCAAUUCACUCCAGUUCACUGCAGACUUGACGAAGCUU
Regarding B3, the binding signal in series [1] was 232 fold enrichment over N70 library.

Source of the values: patent publication US20150166987, “PROGRAMMABLE AND RECONFIGURABLE MICROCOLUMN AFFINITY CHROMATOGRAPY DEVICE, SYSTEM, AND METHODS OF USE THEREOF” (CORNELL UNIVERSITY, published 2015).
